Measurements taken from US20060204974A1.

Target: rat angiotensin type 1a receptor (AT1aR) (rat) (UniProt P25095)
Assay: cell-based or functional assay

UniProt P25095, sequence (P25095 whole entry): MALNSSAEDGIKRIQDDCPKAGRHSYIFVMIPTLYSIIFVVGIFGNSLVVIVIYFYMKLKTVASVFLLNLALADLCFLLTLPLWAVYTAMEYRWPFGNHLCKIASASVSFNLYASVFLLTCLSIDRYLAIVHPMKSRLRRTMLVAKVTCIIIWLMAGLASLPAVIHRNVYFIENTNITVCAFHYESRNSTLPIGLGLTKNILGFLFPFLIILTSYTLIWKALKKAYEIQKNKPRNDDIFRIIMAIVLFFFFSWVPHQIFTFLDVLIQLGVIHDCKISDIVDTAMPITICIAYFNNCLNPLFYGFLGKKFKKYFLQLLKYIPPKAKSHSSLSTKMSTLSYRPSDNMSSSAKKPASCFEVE

Angiotensin II (from UniProt P01019 25-476) (peptide)
Ang II (100 nM) stimulated inositol phosphate production, Ang II-basal (cpm), CHO cells stably expressing E1,2,3: 260 cpm
Ang II (100 nM) stimulated inositol phosphate production, Ang II-basal (cpm), CHO cells stably expressing E1,3: 1320 cpm
Ang II-induced IP production (cpm), 100 nM Ang II, CHO clones stably expressing QM: 1640 cpm
Ang II-induced IP production (cpm), 100 nM Ang II, CHO clones stably expressing WT: 322 cpm
angiotensin II/basal inositol phosphate accumulation, 100 nM angiotensin II for 20 min, A10 cells transiently transfected with E2 plasmid (ratio (angiotensin II/basal)): 1.35
angiotensin II/basal inositol phosphate accumulation, 100 nM angiotensin II for 20 min, A10 cells transiently transfected with ΔE2 plasmid (ratio (angiotensin II/basal)): 1.8
